US20110135657A1 (published 2011)
Numbering of substitutions follows the chain as printed. Names and notes keep the numbering of the source.

B1: 16H7 variant, heavy chain I83T (antibody, human IgG2, lambda, V domains shown)
VH: not shown
VL: SYVLTQPPSVSVAPGQTARITCGGNNIGSESVHWYQQKPGQAPVLVVYDDSDRPSGIPERFSGSNSGNTATLTISRVEAGDEADYYCQVWDGNSDHVVFGGGTKLTVLG
B2: 16H7 variant, heavy chain E16Q + V24F + I83T (antibody, human IgG2, lambda)
heavy: QVTLKESGPVLVKPTQTLTLTCTFSGFSLNNARMGVSWIRQPPGKALEWLAHIFSNDEKSYSTSLKSRLTISKDTSKSQVVLTMTNMDPVDTATYYCARSVVTGGYYYDGMDVWGQGTTVTVSSASTKGPSVFPLAPCSRSTSESTAALGCLVKDYFPEPVTVSWNSGALTSGVHTFPAVLQSSGLYSLSSVVTVPSSNFGTQTYTCNVDHKPSNTKVDKTVERKCCVECPPCPAPPVAGPSVFLFPPKPKDTLMISRTPEVTCVVVDVSHEDPEVQFNWYVDGVEVHNAKTKPREEQFNSTFRVVSVLTVVHQDWLNGKEYKCKVSNKGLPAPIEKTISKTKGQPREPQVYTLPPSREEMTKNQVSLTCLVKGFYPSDIAVEWESNGQPENNYKTTPPMLDSDGSFFLYSKLTVDKSRWQQGNVFSCSVMHEALHNHYTQKSLSLSPGK
light: not shown
B3: 16H7 variant, heavy chain D88R + P89A + V90E (antibody, human IgG2, lambda, V domains shown)
VH: QVTLKESGPVLVKPTETLTLTCTVSGFSLNNARMGVSWIRQPPGKALEWLAHIFSNDEKSYSTSLKSRLTISKDTSKSQVVLIMTNMRAEDTATYYCARSVVTGGYYYDGMDVWGQGTTVTVSS
VL: B1 VL
B4: 16H7 variant, heavy chain E16Q + V24F + I83T + T119L (antibody, human IgG2, lambda)
heavy: B2 heavy with T119L
light: not shown
B5: 16H7 (antibody, human IgG2, lambda, V domains shown)
VH: not shown
VL: B1 VL
B6: 17C3 (antibody, human IgG2, lambda, V domains shown)
VH: QVTLKESGPVLVKPTETLTLTCTVSGFSLSNARMGVSWIRQPPGKALEWLAHIFSNDEKSYSTSLKSRLTISKDTSKSQVVLTMTNMDPVDTATYYCARILLLGAYYYYGMDVWGQGTTVTVSS
VL: B1 VL with E30Q, G92S, N93S
notes: fully human monoclonal antibody from XenoMouse hybridoma
B7: 22H5 (antibody, human IgG2, lambda, V domains shown)
VH: B6 VH with L103V, Y109C
VL: B1 VL with E30Q, G92N, N93T
notes: fully human monoclonal antibody; full chains H2/L2; also called 22H5 (WT)
B8: 16H7 variant, heavy chain D109S (antibody, human IgG2, lambda, V domains shown)
VH: not shown
VL: B1 VL
B9: 16H7 variant, light chain D49Y (antibody, human IgG2, lambda, V domains shown)
VH: not shown
VL: B1 VL with D49Y
B10: 22H5 variant, heavy chain C109S (antibody, human IgG2, lambda, V domains shown)
VH: B6 VH with L103V, Y109S
VL: B1 VL with E30Q, G92N, N93T
notes: variant chain entry already carries the change; also called #23, P60899.2
B11: 22H5 variant, light chain N92Q (antibody, human IgG2, lambda, V domains shown)
VH: B6 VH with L103V, Y109C
VL: B1 VL with E30Q, G92Q, N93T
notes: variant chain entry already carries the change; also called #7, P60897.3
B12: 22H5 variant, light chain S94A (antibody, human IgG2, lambda, V domains shown)
VH: B6 VH with L103V, Y109C
VL: B1 VL with E30Q, G92N, N93T, S94A
notes: variant chain entry already carries the change; also called #6, P60898.3
B13: 16H7 variant, heavy chain Deletion of Y107 (antibody, human IgG2, lambda, V domains shown)
VH: QVTLKESGPVLVKPTETLTLTCTVSGFSLNNARMGVSWIRQPPGKALEWLAHIFSNDEKSYSTSLKSRLTISKDTSKSQVVLIMTNMDPVDTATYYCARSVVTGGYYDGMDVWGQGTTVTVSS
VL: B1 VL
B14: 16H7 variant, heavy chain I83K (antibody, human IgG2, lambda, V domains shown)
VH: not shown
VL: B1 VL
B15: 16H7 variant, heavy chain S100I (antibody, human IgG2, lambda, V domains shown)
VH: not shown
VL: B1 VL
B16: 16H7 variant, heavy chain D88R + P89A + V90E + S100I (antibody, human IgG2, lambda, V domains shown)
VH: B3 VH with S100I
VL: B1 VL
B17: 16H7 variant, heavy chain E16Q + V24F + I83T + S100I + T119L (antibody, human IgG2, lambda, V domains shown)
VH: B3 VH with E16Q, V24F, I83T, R88D, A89P, E90V, S100I, T119L
VL: B1 VL
B18: 22H5 Heavy Chain, Insertion of Y107 (SEQ ID NO 405), as printed in Table 7 (antibody, human IgG2, lambda, V domains shown)
VH: QVTLKESGPVLVKPTETLTLTCTVSGFSLNNARMGVSWIRQPPGKALEWLAHIFSNDEKSYSTSLKSRLTISKDTSKSQVVLIMTNMDPVDTATYYCARSVVTGGYYYYDGMDVWGQGTTVTVSS
VL: B1 VL with E30Q, G92N, N93T
B19: 16H7 variant, heavy chain V24F (antibody, human IgG2, lambda, V domains shown)
VH: not shown
VL: B1 VL
B20: 16H7 variant, light chain D49A + D91A (antibody, human IgG2, lambda, V domains shown)
VH: not shown
VL: B1 VL with D49A, D91A
B21: 18G1 (antibody, human IgG2, kappa, V domains shown)
VH: EVQLLESGGGLVQPGGSLRLSCAASRFTFSTYAMSWVRQAPGKGLEWVSGISGSGVSTHYADSVKGRFTISRDNSKNTLYLQMNSLRAEDTAVYYCAKSLIVVIVYALDHWGQGTLVTVSS
VL: EIVLTQSPGTLSLSPGERATLSCRASQNFDSSYLAWYQQKPGQAPRLLIYGTSSRATGIPDRFSGIGSGTDFTLTINRLEPEDFAMYYCQQYGGSPLTFGGGTEVEIKR
notes: fully human monoclonal antibody; full chains H5/L4
B22: 40D2 (antibody, human IgG2, kappa, V domains shown)
VH: QVQLQESGPGLVKPSQTLSLTCTVSGGSISSGGYNWSWIRQHPGKGLEWIGNIYYSGSTYYNPSLKSRVTISVDTSKNQFSLKLRSVTAADTAVYYCARENIVVIPAAIFAGWFDPWGQGTLVTVSS
VL: DFVMTQTPLSLSVTPGQPASISCKSSQSLLQSDGKTYLYWYLQKPGQPPHLLIYEVSNRFSGVPDRFSGSGSGTDFTLKISRVEAEDVGVYYCMQSIQLPRTFGQGTKVEIKR
notes: fully human monoclonal antibody
B23: 46D11 (antibody, human IgG2, kappa, V domains shown)
VH: B18 VH with S7A, N30S, S37N, I83T, S100V, V101R, V102I, T103A, G105D, D110Y
VL: DIQMTQSPSSVSASVGDRVTITCRASQGISIWLAWYQQKPGKAPKLLIYAASSLQSGVPSRFSGSGSGTDFTLTISSLQPEDFATYYCQQANDFPITFGQGTRLEIKR
notes: fully human monoclonal antibody; full chains H13/L13
B24: 37D3 (antibody, human IgG2, kappa, V domains shown)
VH: EVHLVESGGGLAKPGGSLRLSCAASGFTFRNAWMSWVRQAPGKGLEWVGRIKSKTDGGTTDYAAPVKGRFTISRDDSKNTLYLQMNSLKTEDTAEYYCITDRVLSYYAMAVWGQGTTVTVSS
VL: DIVMTQSPLSLPVTPGEPASISCRSSQSLLHSNGYNFLDWYLQKPGQSPQLLIYLGSDRASGVPDRFSGSGSGTEFTLKISRVEAEDVGLYYCMQALQTPCSFGQGTKLEIKR
notes: as for B22

Experiments:
[1] = molecular target: T1, human FGF21 receptor (FGF21R): full length human FGFR1c and full length human β-Klotho co-expressed at the … (human, UniProt P11362 22-822; Q86Z14 53-1044); test: cell-based or functional assay
[2] = molecular target: T1, human FGF21 receptor (FGF21R): full …; test: cell-based or functional assay; remark: listed apart in the source
[3] = molecular target: T2, soluble human β-Klotho (Biacore, Example 8) (human, UniProt Q86Z14 53-996, limits assumed); test: Biacore competition binning; test antibody injected over soluble receptor captured on immobilized 24H11, 17D8 or 1A2.1
T2 construct: also called soluble β-Klotho
Description: Soluble human FGFR1c/β-Klotho ECD-Fc complex or β-Klotho was then captured on the immobilized antibody surfaces.

[4] = molecular target: T3, His-tagged human recombinant β-Klotho (human, UniProt Q86Z14 53-997, limits assumed); test: Biacore, 100 nM mAb over His-tagged human β-Klotho captured on anti-His antibody
T3 construct: also called β-Klotho captured on anti-His; human β-Klotho; not shown: His tag
Description: Briefly, mouse anti-His antibody (Qiagen, Valencia, Calif.) was immobilized on a CM5 chip using amine coupling reagents (General Electronics, Piscataway, N.J.). His-tagged human recombinant β-Klotho was captured on the second flow cell to ˜100RU. The first flow cell was used as a background control. 100 nM mAbs were diluted in PBS plus 0.1 mg/ml BSA, 0.005% P20 and injected over the β-Klotho captured on anti-His antibody surface. For kinetic measurement, 0.78-100 nM mAbs diluted in PBS plus 0.1 mg/ml BSA, 0.005% P20 were injected over the β-Klotho surface.

Row | EC50 (nM), Erk-phosphorylation, human adipocyte assay [1] [nM] | also measured | Binder
1 | 0.73 | – | B1
2 | 0.38 | – | B2
3 | 0.35 | – | B3
4 | 0.36 | – | B4
5 | 0.53 | Activity (%) = % of FGF21 activity, luciferase reporter, AM-1/D FGFR1c+β-Klotho Luc clone; antibody combined with isotype IgG2k control [2]: 23.5 % of FGF21 activity | B5
6 | – | binding result [3]: binds | B6
7 | 2.27 | koff [4]: 0.00031 s⁻¹ | B7
8 | 0.31 | – | B8
9 | 0.6 | – | B9
10 | – | koff [4]: 0.0003 s⁻¹ | B10
11 | 3.33 | koff [4]: 0.00052 s⁻¹ | B11
12 | 1.98 | koff [4]: 0.00035 s⁻¹ | B12
13 | 1.04 | – | B13
14 | 0.39 | – | B14
15 | 0.17 | – | B15
16 | 0.14 | – | B16
17 | 0.24 | – | B17
18 | 0.51 | – | B18
19 | 0.75 | – | B19
20 | 1.4 | – | B20
21 | – | binding result [3]: binds | B21
22 | – | binding result [3]: binds | B22
23 | – | binding result [3]: binds | B23
24 | – | binding result [3]: binds | B24
